Patent US20240100176A1 (Eli Lilly, published 2024)
Residue numbers refer to the chain shown, from its start.

Tests used:
[1] = molecular target: T1, hexahistidine-tagged human IL-4Rα extracellular domain (human, UniProt P24394 26-232); experiment: competition MSD ELISA (solution equilibrium, 37 °C), apparent KD, single experiment
T1 construct: In the MSD assay the plate coat is the His-tagged ECD; also called human IL-4Rα ECD; Wild type receptor; not shown: hexahistidine tag
T1 sequence: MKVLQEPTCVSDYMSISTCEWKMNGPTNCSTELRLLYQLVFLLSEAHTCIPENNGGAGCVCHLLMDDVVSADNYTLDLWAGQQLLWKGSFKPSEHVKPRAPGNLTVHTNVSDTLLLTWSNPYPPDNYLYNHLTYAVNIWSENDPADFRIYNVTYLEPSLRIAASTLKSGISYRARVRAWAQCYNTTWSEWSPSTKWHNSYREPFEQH
Protocol: (§1) Example 3a. […] A 96-well multi-array plate (Meso Scale Diagnostics, Cat. #L15XA-3) was coated at 4° C. overnight with 0.5 μg/mL hexahistidine-tagged human or cynomolgus monkey IL-4Rα ECD in phosphate buffered saline (PBS). Following coating, plates were washed 10 times with 200 μL PBST (PBS with 0.05% Tween® 20) and blocked with 300 μL/well of PBS casein blocking buffer (Pierce, Cat. #37528) at 37° C. for 1 hour. Plates were then washed 10 times as above, and 50 μL of the preincubated antibody:IL-4Rα dilution series was transferred to the wells and incubated at 37° C. with 300 rpm shaking for […]. Plates were washed 10 times with PBST, 50 μL of 1 μg/mL anti-human antibody sulfo-tag 20 (Meso Scale Diagnostics, Cat. #R32AJ-1) was added to the plates for the assay of Table 7a, and anti-Human NHP Kappa Light chain SULFO-TAG 20 (Meso Scale Diagnostics, Cat #D20TF-6) was added to the plates for the assay of Table 7b, and plates were incubated at 37° C. with 300 rpm shaking for 30 minutes. Plates were washed 10 times with PBST, 150 μL/well of 1× Read Buffer T was added to the wells and analyzed on a SECTOR® Imager 6000 (Meso Scale Diagnostics) 15 min after buffer addition. The apparent KD is determined by fitting a sigmoidal curve to the electrochemiluminescence (ECL) response vs. log (soluble IL-4Rα concentration) using GraphPad Prism 9. Data is graphed with normalized ECL values.

[2] = molecular target: T2, hexahistidine-tagged cynomolgus monkey IL-4Rα extracellular domain (cynomolgus monkey, UniProt P24394 26-231 (human entry)); experiment: as above
T2 construct: also called cynomolgus monkey IL-4Rα ECD; not shown: hexahistidine tag
T2 chain: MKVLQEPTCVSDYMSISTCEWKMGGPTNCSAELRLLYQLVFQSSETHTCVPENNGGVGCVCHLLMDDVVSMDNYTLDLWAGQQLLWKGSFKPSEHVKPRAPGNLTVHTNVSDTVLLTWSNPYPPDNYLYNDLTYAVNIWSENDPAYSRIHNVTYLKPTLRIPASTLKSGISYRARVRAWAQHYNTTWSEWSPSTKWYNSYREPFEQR
Protocol: as §1

[3] = molecular target: T3, human IL-4Rα on cells (human PBMC B cells and CD4+ T cells, Daudi cells, HEK-Blue IL-4/IL-13 cells, myeloid … (human, UniProt P24394 26-825)); experiment: flow cytometry on human PBMCs, B cells, Alexa Fluor 647 labelled antibody
T3 sequence: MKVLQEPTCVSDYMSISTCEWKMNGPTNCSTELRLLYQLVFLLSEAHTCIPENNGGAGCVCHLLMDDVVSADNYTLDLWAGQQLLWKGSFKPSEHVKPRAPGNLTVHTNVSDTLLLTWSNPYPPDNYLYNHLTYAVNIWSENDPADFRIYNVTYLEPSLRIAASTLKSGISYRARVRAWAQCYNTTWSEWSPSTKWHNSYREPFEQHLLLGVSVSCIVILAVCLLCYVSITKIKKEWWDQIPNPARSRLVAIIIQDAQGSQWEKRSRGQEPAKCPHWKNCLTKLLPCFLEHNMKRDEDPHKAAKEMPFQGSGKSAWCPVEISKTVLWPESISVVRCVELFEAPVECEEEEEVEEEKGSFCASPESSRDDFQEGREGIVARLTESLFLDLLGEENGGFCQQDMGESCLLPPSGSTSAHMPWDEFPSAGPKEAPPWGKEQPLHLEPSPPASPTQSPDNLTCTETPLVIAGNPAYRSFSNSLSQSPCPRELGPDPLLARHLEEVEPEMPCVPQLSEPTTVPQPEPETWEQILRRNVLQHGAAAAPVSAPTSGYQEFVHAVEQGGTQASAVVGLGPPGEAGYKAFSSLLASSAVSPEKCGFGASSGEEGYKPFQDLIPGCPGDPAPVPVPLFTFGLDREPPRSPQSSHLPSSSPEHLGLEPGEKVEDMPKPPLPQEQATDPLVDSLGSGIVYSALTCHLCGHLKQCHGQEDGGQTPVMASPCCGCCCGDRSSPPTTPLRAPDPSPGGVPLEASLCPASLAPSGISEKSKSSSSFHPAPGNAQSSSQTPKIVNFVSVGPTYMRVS
Protocol: Example 3b. Binding to B cells and T cells: Binding of the exemplified anti-human IL-4Rα antibodies to B cells and T cells was tested in a Fluorescence Activated Cell Sorting (FACS) assay. […] Freshly isolated cells PBMCs were resuspended at 2×10⁶ cells/mL and allowed to rest for 15 minutes at room temperature, then plated at 100 μL/well into a round bottom 96-well plate (COSTAR®) and washed with FACS buffer (PBS containing 2% fetal bovine serum from Corning®). Exemplified anti-human IL-4Rα antibodies and the respective control IgG antibodies conjugated to Alexa Fluor® 647 according to manufacturer's protocol (Thermo Fisher Scientific) were added to the wells at 66.67 nM and diluted 4-fold in duplicate. Equivalent volume of 2× antibody cocktail containing: Human TruStain FcX™. FITC anti-human CD3 Antibody, Alexa Fluor® 700 anti-human CD4 Antibody (all from Biolegend®) and CD20 Monoclonal Antibody (2H7), PerCP-Cyanine5.5 (Thermo Fisher Scientific) was then added to the wells. Cells were incubated at 4° C. for 30 minutes, washed twice with FACS buffer and resuspended in a final volume of 100 μL FACS buffer. Viability dye, Sytox™ blue (Thermo Fisher Scientific), was added and the samples were analyzed via a flow cytometer (LSRFortessa™ X-20; BD BIOSCIENCES). Data analysis was performed using FlowJo software and statistical analysis was performed using GraphPad Prism 9. […]

[4] = molecular target: T3, human IL-4Rα on cells (human PBMC B …); experiment: cell-based or functional assay
[5] = molecular target: T4, hexahistidine tagged human IL-4Rα ECD containing a C182L mutation (human, UniProt P24394 26-232); experiment: X-ray co-crystal structure
T4 construct: Stated for the Ab9 Fab crystal; also called IL-4Rα ECD (crystallisation construct); not shown: hexahistidine tag

B1: anti-human IL-4Rα antibody Ab4 (antibody, human IgG4 S228P, kappa)
heavy: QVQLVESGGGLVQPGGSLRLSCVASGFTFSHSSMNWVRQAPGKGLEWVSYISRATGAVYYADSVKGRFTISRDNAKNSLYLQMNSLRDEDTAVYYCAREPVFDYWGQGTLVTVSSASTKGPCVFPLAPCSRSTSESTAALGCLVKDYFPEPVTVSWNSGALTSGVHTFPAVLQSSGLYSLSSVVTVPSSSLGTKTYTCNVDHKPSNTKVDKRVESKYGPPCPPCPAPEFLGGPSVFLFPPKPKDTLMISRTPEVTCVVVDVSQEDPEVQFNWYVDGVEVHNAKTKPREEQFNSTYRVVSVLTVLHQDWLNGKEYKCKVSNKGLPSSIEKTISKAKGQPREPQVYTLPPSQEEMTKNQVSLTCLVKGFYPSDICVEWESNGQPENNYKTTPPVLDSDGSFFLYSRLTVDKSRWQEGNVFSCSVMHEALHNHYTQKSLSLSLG
light: DIQMTQSPSAMSASVGDRVTITCRASQDISNYLAWFQQKPGKVPTRLIYAASSLQSGVPSRFSGSGSGTEFTLTISSLQPEDFATYYCLQWSSYPRTFGQGTKVEIKRTVAAPSVFIFPPSDEQLKSGTASVVCLLNNFYPREAKVQWKVDNALQSGNSQESVTEQDSKDSTYSLSSTLTLSKADYEKHKVYACEVTHQGLSSPVTKSFNRGEC
Question: How did the Kd [1] turn out when B1 was run?
Answer: 0.0246 nM

Question: And the Kd [2]?
Answer: 0.0315 nM

B2: effector null anti-human IL-4Rα antibody Ab8 (antibody, human IgG1, kappa, L234A L235A)
heavy: QVQLVESGGGLVQPGGSLRLSCVASGFTFSHSSMNWVRQAPGKGLEWVSYISRATGAVYYADSVKGRFTISRDNAKNSLYLQMNSLRDEDTAVYYCAREPVFDYWGQGTLVTVSSASTKGPCVFPLAPSSKSTSGGTAALGCLVKDYFPEPVTVSWNSGALTSGVHTFPAVLQSSGLYSLSSVVTVPSSSLGTQTYICNVNHKPSNTKVDKRVEPKSCDKTHTCPPCPAPEAAGGPSVFLFPPKPKDTLMISRTPEVTCVVVDVSHEDPEVKFNWYVDGVEVHNAKTKPREEQYNSTYRVVSVLTVLHQDWLNGKEYKCKVSNKALAAPIEKTISKAKGQPREPQVYTLPPSREEMTKNQVSLTCLVKGFYPSDICVEWESNGQPENNYKTTPPVLDSDGSFFLYSKLTVDKSRWQQGNVFSCSVMHEALHNHYTQKSLSLSPGK
light: B1 light
notes: Effector null backbone
Question: How did the EC50 [3] turn out when B2 was run?
Answer: 1.07 nM

B3: anti-human IL-4Rα antibody Ab9 (antibody, human IgG4 S228P, kappa, V domains shown)
VH: QVQLVESGGGLVQPGGSLRLSCAASGFTFSHSSMNWVRQAPGKGLEWVSYISRATGAVYYADSVKGRFTISRDNAKNSLYLQMNSLRDEDTAVYYCAREPVFDYWGQGTLVTVSS
VL: DIQMTQSPSAMSASVGDRVTITCRASQGISNYLAWFQQKPGKVPTRLIYAASSLQSGVPSRFSGSGSGTEFTLTISSLQPEDFATYYCLQWSSYPRTFGQGTKVEIKR
Question: Which results are given for B3?
Answer: IL-4 IC50 (nM): inhibition of IL-4 induced SEAP activity in HEK-Blue IL-4R and IL-13R expressing cells [4]: 0.03 nM; IL-13 IC50 (nM): inhibition of IL-13 induced SEAP activity in HEK-Blue IL-4R and IL-13R expressing cells [4]: 0.24 nM

B4: anti-human IL-4Rα antibody Ab10 (antibody, human IgG4 S228P, kappa, F234A L235A, V domains shown)
VH: B3 VH with H31I, V58I, D73N
VL: B3 VL with W91H, S92N
Question: Which “IL-4 IC50 (nM): inhibition of IL-4 induced SEAP activity in HEK-Blue IL-4R and IL-13R expressing cells” value [4] does the source give for B4 here?
Answer: 3.45 nM

Question: What about the “IL-13 IC50 (nM): inhibition of IL-13 induced SEAP activity in HEK-Blue IL-4R and IL-13R expressing cells” value [4] of the same binder?
Answer: > 35 nM

B5: Ab9 Fab (hexahistidine tagged IgG1 heavy chain truncated after CH1, Crystal Kappa light chain) (Fab, V domains shown)
VH: B3 VH
VL: DIQMTQSPSAMSASVGDRVTITCRASQGISNYLAWFQQKPGKVPTRLIYAASSLQSGVPSRFSGSGSGTEFTLTISSLQPEDFATYYCLQWSSYPRTFGQGTKVEIK
notes: Construct for co-crystallisation; also called Fab portion of Ab9; Ab9 variant
Question: Does B5 bind [5]?
Answer: binds

B6: Ab1 Fab (Crystal Kappa design) (Fab, V domains shown)
VH: B3 VH with A23V
VL: B5 VL with G28D
notes: Construct for co-crystallisation; also called Fab of the Ab1; anti-human IL-4Rα Ab1 Fab
Question: Does B6 bind [5]?
Answer: binds
